Source: article PMC4164784, “4E-BPs require non-canonical 4E-binding motifs and a lateral surface of eIF4E to repress translation” (Nature Communications, 2014)
No end group written: not given here.

Target: T1, eIF4E–eIF4G complex (eIF4E WT; eIF4G residues 578–650) (Drosophila melanogaster, UniProt P48598)
T1 construct: full-length eIF4E (WT or the II-AA mutant) containing an N-terminal SNH-tag was coexpressed; made in house; host or cells: E. coli BL21 Star (DE3), coexpression
T1 sequence (P48598 1-248 isoform P48598-2): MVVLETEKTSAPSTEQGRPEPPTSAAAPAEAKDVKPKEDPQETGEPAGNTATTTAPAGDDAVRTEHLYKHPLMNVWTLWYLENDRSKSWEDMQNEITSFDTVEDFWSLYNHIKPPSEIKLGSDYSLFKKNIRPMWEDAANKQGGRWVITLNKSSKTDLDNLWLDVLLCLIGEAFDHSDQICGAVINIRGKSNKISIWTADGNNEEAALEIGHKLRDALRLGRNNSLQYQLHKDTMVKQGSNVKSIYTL
Experiment: Competition assay, displacement of GST-eIF4G from preassembled eIF4E (WT)–eIF4G complexes
Assay type: biochemical
Conditions: for displacement of eIF4G from eIF4E WT–eIF4G complex (in words): 2–20 μM GB1-fused competitor, Strep-Tactin pull down; for competition with eIF4G for eIF4E WT (in words): Fig. 5a,c, fivefold molar excess of MBP-tagged competitor, 30 min at 4 °C, m7GTP or Strep-Tactin pull down
Experimental: For the competition assays shown in Figs 5a,c and 6a,b, complexes containing SHN- or MBP-tagged eIF4E (WT or II-AA mutant) bound to GST-eIF4G (residues 578–650), GST-Thor (full length), GST-4E-T (residues 1–58) or GST-CUP (311–440) were obtained by coexpressing the corresponding proteins in E. coli BL21 (DE3) STAR cells (30 ml culture). The cells were resuspended in lysis buffer (5 ml) that was supplemented with EDTA-free protease inhibitor (Roche) and 1 mg ml^−1 lysozyme and lysed by sonication. The cleared lysates were incubated with 400 μl of Protino Glutathione Agarose 4B (Macherey-Nagel) for 1 h. The beads were washed three times with lysis buffer, and the proteins were eluted after 10 min of incubation with lysis buffer containing 25 mM L-glutathione. The protein complexes were stored at −20 °C or used in competition assays.
The purified recombinant complexes were mixed with excess amounts of the indicated purified competitor proteins (Fig. 5c) or with bacterial lysates expressing the competitor proteins (Figs 5a and 6) and incubated for 30 min at 4 °C. After incubation, 20 μl of immobilized γ-Aminophenyl-m^7GTP or Strep-Tactin Sepharose (IBA), were added to the samples and incubated for another 40 min at 4 °C. The beads were washed three times with lysis buffer and eluted with lysis buffer containing 2.5 mM desthiobiotin (Strep-Tactin Sepharose) or with 20 μl of SDS–PAGE loading buffer (Aminophenyl-m^7GTP beads). The proteins were analyzed by 10–15% SDS–PAGE followed by staining with Coomassie blue staining. […]

[1] = Fig. 4, 2 μM complex, 20 min at 4 °C, n=2

Row | Substance | displacement of eIF4G from eIF4E WT–eIF4G complex (in words) [1] | molar excess at which eIF4G was effectively displaced (Fig. 4, 2 μM complex, GB1-fused C+NC competitor, 20 min at 4 °C, n=2) | competition with eIF4G for eIF4E WT (in words)
1 | 4E-T C+NC: 4E-T residues 9–44, eIF4E-binding region short, C-terminal GB1 | displaced eIF4G from the complex and associated with eIF4E |  | 
2 | Thor C+NC: Thor residues 50–83, eIF4E-binding region short, C-terminal GB1 (TKLIYERAFMKNLRGSPLSQTPPSNVPSCLLRGT-GB1; UniProt Q9XZ56 50-83, looked up, fragment) | displaced eIF4G from the complex and associated with eIF4E |  | 
3 | CUP C+NC: CUP residues 325–376, eIF4E-binding region short, C-terminal GB1 (KSYTRSRLMDIRNGMFNALMHRSKESFVMPRIATCDDIELEGRLRRMNIWRT-GB1; UniProt Q9VMA3 325-376, looked up, fragment) | displaced eIF4G from the complex and associated with eIF4E | two | efficiently displaced preassembled eIF4G
4 | Thor C: Thor residues 50–63, canonical motif |  |  | abolished competition
